# Target: the molecule itself
# Test: pull-down + SEC; coproduced in E. coli BL21 Star, purified by Strep-Tactin affinity chromatography followed by SEC; pooled 60-mer peak (~1 MDa) analysed by SDS-PAGE
protein,measurement,value
"Strep-RibH (enzyme, Bacillus subtilis, UniProt P11998 1-154, looked up, RibH, lumazine synthase of Bacillus subtilis; printed mass of Strep-RibH 17.9 kDa; Cloning and purification are described in the Supplementary Data; The printed mass fits the whole protein with its tag (surmised); also called wt-like Strep-RibH; source: E. coli BL21 (DE3) Star, purified (Strep-Tactin, SEC); also coproduced with His6-RibE; not shown: Strep tag, N-terminal, kept; copies: 60) MNIIQGNLVGTGLKIGIVVGRFNDFITSKLLSGAEDALLRHGVDTNDIDVAWVPGAFEIPFAAKKMAETKKYDAIITLGTVIRGATTHYDYVCNEAAKGIAQAANTTGVPVIFGIVTTENIEQAIERAGTKAGNKGVDCAVSAIEMANLNRSFE",stoichiometry N,60
"Strep-RibH^K29E (enzyme, Bacillus subtilis, UniProt P11998 1-154, looked up, RibH, lumazine synthase of Bacillus subtilis, with K29E; printed mass 17.9 kDa; Cloning and purification are described in the Supplementary Data; source: E. coli BL21 (DE3) Star, purified (Strep-Tactin, SEC); also coproduced with His6-RibE; not shown: Strep tag, N-terminal, kept; copies: 60) MNIIQGNLVGTGLKIGIVVGRFNDFITSELLSGAEDALLRHGVDTNDIDVAWVPGAFEIPFAAKKMAETKKYDAIITLGTVIRGATTHYDYVCNEAAKGIAQAANTTGVPVIFGIVTTENIEQAIERAGTKAGNKGVDCAVSAIEMANLNRSFE",stoichiometry N,60
"Strep-RibH^K29R (enzyme, Bacillus subtilis, UniProt P11998 1-154, looked up, RibH, lumazine synthase of Bacillus subtilis, with K29R; printed mass 17.9 kDa; Cloning and purification are described in the Supplementary Data; the tag is likely N-terminal as in Strep-RibH (surmised); source: E. coli BL21 (DE3) Star, purified (Strep-Tactin, SEC); also coproduced with His6-RibE; copies: 60) MNIIQGNLVGTGLKIGIVVGRFNDFITSRLLSGAEDALLRHGVDTNDIDVAWVPGAFEIPFAAKKMAETKKYDAIITLGTVIRGATTHYDYVCNEAAKGIAQAANTTGVPVIFGIVTTENIEQAIERAGTKAGNKGVDCAVSAIEMANLNRSFE",stoichiometry N,60

# Reference: PMC9048828, “The Acetyltransferase RibT From Bacillus subtilis Affects in vivo Dynamics of the Multimeric Heavy Riboflavin Synthase Complex” (Frontiers in Microbiology, 2022)
